In patent US20230321261A1 (published 2023):
Blank lines part the entries; values can stand above or below the binder they belong to.

What was measured:
[1] = molecular target: T1, Mus musculus AXL (p33-HAMm-AXL) (human (Homo sapiens) AXL with mouse …, UniProt Q00993 1-888 (mouse entry)); assay: flow cytometry, transfected HEK293F cells
T1 construct: also called hsAXL-mmECD
T1 chain: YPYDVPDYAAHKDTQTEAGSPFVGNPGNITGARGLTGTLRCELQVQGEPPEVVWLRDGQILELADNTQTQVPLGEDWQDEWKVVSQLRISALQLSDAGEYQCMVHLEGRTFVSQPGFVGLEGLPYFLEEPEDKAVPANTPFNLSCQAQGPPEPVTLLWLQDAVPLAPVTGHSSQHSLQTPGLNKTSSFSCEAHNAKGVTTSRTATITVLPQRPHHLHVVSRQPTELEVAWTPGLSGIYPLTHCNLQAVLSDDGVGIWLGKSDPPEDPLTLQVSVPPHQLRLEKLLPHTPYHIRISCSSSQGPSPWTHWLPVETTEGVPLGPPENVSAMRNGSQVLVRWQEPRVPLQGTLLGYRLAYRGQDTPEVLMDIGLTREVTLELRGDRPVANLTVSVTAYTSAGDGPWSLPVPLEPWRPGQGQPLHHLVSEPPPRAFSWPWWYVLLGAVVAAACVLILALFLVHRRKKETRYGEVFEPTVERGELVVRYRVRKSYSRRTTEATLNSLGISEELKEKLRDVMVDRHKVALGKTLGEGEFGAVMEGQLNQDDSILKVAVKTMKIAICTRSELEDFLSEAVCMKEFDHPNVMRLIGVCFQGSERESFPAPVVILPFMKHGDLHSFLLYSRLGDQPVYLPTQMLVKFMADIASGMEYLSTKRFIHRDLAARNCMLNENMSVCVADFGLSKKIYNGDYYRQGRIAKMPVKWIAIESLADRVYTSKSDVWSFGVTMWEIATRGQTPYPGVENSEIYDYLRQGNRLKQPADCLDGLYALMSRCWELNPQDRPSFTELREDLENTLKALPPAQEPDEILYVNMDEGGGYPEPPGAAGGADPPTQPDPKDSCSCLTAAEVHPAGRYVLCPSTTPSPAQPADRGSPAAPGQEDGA

[2] = molecular target: T2, Homo sapiens AXL - Mus musculus FN2 domain (p33-AXL-mFN2) (human (Homo sapiens) AXL with mouse …, UniProt P30530 26-894); assay: flow cytometry, transfected HEK293F cells
T2 construct: also called hsAXL-mmFN2
T2 chain: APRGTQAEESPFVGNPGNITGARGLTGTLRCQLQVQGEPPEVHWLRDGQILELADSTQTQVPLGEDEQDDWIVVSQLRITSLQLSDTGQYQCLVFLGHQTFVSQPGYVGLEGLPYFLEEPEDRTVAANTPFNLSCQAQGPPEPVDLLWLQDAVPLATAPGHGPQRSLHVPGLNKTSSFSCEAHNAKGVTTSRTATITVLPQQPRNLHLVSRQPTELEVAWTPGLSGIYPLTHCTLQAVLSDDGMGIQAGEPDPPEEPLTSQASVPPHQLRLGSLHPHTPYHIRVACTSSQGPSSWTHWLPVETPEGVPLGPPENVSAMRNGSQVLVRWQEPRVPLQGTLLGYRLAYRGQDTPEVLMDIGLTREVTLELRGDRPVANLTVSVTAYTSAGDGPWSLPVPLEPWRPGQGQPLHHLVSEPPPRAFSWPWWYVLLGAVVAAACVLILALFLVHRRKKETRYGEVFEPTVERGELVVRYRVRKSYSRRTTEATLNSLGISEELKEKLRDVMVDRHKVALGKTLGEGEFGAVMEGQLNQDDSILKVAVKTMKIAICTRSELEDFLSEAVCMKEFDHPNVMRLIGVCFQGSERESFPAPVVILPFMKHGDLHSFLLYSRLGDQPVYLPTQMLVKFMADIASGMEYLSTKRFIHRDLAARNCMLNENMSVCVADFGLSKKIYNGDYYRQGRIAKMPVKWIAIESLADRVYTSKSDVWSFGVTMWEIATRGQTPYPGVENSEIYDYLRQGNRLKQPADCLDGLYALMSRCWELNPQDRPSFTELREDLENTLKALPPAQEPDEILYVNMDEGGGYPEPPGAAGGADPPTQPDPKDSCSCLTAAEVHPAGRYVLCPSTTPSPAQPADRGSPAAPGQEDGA

binding result [1]: no binding (tested: 1 µg/mL)
B1: IgG1-AXL-061 (antibody, V domains shown)
VH: QVQLVQSGAEVKKPGASVKVSCKASGYAFTGYGISWVRQAPGQGLEWIGWISAYNGNTNYVQNLQDRVTMTTDTSTSTAYMELRSLRSDDTAVYYCARDHISMLRGIIIRNYWGQGTLVTVSS
VL: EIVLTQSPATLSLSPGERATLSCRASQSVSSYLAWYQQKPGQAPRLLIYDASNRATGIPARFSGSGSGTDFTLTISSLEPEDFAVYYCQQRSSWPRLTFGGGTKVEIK
notes: expressed as IgG1,κ

binding result [2]: no binding (tested: 1 µg/mL)
B2: IgG1-AXL-726 (antibody, V domains shown)
VH: QVQLQQWGAGLLKPSETLSLTCAIDGGSFSGYYWSWIRQPPGKGLEWIGEISHSGRTNYNPSLKSRVTISIDTSKNQFSLKLSSVAAADTAVYYCARFITMIRGAIITHFDYWGQGALVTVSS
VL: DIQMTQSPSSLSASVGDRVTITCRASQGISSWLAWYQQKPEKAPKSLIYAASSLQSGVPSRFSGSGSGTDFTLTISSLQPEDFATYYCQQYHSYPYTFGQGTKLEIK
notes: expressed as IgG1,κ

binding result [1]: no binding (tested: 1 µg/mL)
B3: IgG1-AXL-613 (antibody, V domains shown)
VH: QVQLVQSGAEVKKPGSSVKVSCKASGGTFSSYAINWMRQAPGQGLEWMGRIIPIFGIVNYAQKFQGRVTLTADKSTSTAYMELSSLRSEDTAVYYCARRGNYYGSGSPDVFDIWGQGTMVTVSS
VL: not shown
notes: expressed as IgG1,κ

binding result [1]: no binding (tested: 1 µg/mL)
B4: IgG1-AXL-137 (antibody, V domains shown)
VH: QVQLVQSGAEVKKPGSSVKVSCKASGGTFSRYAISWVRQAPGQGLEWMGRIIPIVGIANYAQKFQGRVTLTADKSTSTAYMELSSLRSEDTAVYYCAREAGYSSSWYAEYFQHWGQGTLVTVSS
VL: not shown
notes: expressed as IgG1,κ
